The numbers were not newly measured in PMC11266353, “Synthesis of a highly thermostable insulin by phenylalanine conjugation at B29 Lysine” (Communications Chemistry, 2024), which cites them from elsewhere.

On the set-up of this data set: method as in Protein J., 2023, 42, 383. Conditions: ref Protein J., 2023, 42, 383.

Consider “Modified insulin: insulin analog reported in Protein J., 2023, 42, 383: tri-acetylated at Gly A1, Phe B1 and Lys B29”, for which the Melting temperature was 72.5 °C.
